The numbers were not newly measured in article PMC4776130, which cites them from elsewhere.

Where two headings read alike, the source gives them in different places. A value given as a limit tells only on which side of the number the result lay.

Data set [1] deals with T1, His15 (UniProt position 33, AAMKRHGLDNY). The data set can be described thus: NMR.
For data set [2], the target named is T1, His15.
Data set [3] deals with Asp20 (UniProt position 41, SWTCEDFLAVD). The data set can be described thus: NMR. Conditions: HdeA dimer (remains dimeric from pH 6 down to pH 3).
For data set [4], the target named is Asp25 (UniProt position 46, DFLAVDESFQP). The data set can be described thus: NMR. Conditions: HdeA dimer (remains dimeric from pH 6 down to pH 3).
Data set [5] addresses Asp43 (UniProt position 64, ALNNKDKPEDA). Nature of the data set: NMR. The following applies: HdeA dimer (remains dimeric from pH 6 down to pH 3).
The target of data set [6] is Asp47 (UniProt position 68, KDKPEDAVLDV). The data set can be described thus: NMR. The following applies: HdeA dimer (remains dimeric from pH 6 down to pH 3).
The target of data set [7] is Asp51 (UniProt position 72, EDAVLDVQGIA). The data set can be described thus: NMR. The following applies: HdeA dimer (remains dimeric from pH 6 down to pH 3).
In data set [8] the target is Asp69 (UniProt position 90, QACTQDKQANF). Nature of the data set: NMR. The following applies: HdeA dimer (remains dimeric from pH 6 down to pH 3).
Data set [9] has as its target Asp76 (UniProt position 97, QANFKDKVKGE). Nature of the data set: NMR. Conditions: HdeA dimer (remains dimeric from pH 6 down to pH 3).
Data set [10] deals with Asp83 (UniProt position 104, VKGEWDKIKKD). Nature of the data set: NMR. Conditions: HdeA dimer (remains dimeric from pH 6 down to pH 3).
In data set [11] the target is Glu19 (UniProt position 40, NSWTCEDFLAV). Nature of the data set: NMR. The following applies: HdeA dimer (remains dimeric from pH 6 down to pH 3).
Data set [12] addresses Glu26 (UniProt position 47, FLAVDESFQPT). The data set can be described thus: NMR. The following applies: HdeA dimer (remains dimeric from pH 6 down to pH 3).
Data set [13] deals with Glu46 (UniProt position 67, NKDKPEDAVLD). The data set can be described thus: NMR. Conditions: HdeA dimer (remains dimeric from pH 6 down to pH 3).
Data set [14] concerns the target Glu81 (UniProt position 102, DKVKGEWDKIK). The data set can be described thus: NMR. Conditions: HdeA dimer (remains dimeric from pH 6 down to pH 3).
Data set [15] addresses Asp19 (UniProt position 101, LIKAIDGDTVK). Conditions: folded SNase Delta+PHS.
For data set [16], the target named is Asp21 (UniProt position 103, KAIDGDTVKLM). Conditions: folded SNase Delta+PHS.
The target in data set [17] is Asp40 (UniProt position 122, RLLLVDTPETK). Conditions: folded SNase Delta+PHS.
Data set [18] addresses Asp77 (UniProt position 159, IEVEFDKGQRT). Conditions: folded SNase Delta+PHS.
The target in data set [19] is Asp83 (UniProt position 165, KGQRTDKYGRG). The following applies: folded SNase Delta+PHS.
For data set [20], the target named is Asp95 (UniProt position 177, AYIYADGKMVN). Conditions: folded SNase Delta+PHS.
The target in data set [21] is Glu10 (UniProt position 92, KKLHKEPATLI). The following applies: folded SNase Delta+PHS.
The target in data set [22] is Glu101 (UniProt position 183, GKMVNEALVRQ). Conditions: folded SNase Delta+PHS.
Data set [23] deals with Glu122 (UniProt position 204, GNNTHEQLLRK). The following applies: folded SNase Delta+PHS.
Data set [24] deals with Glu129 (UniProt position 211, LLRKAEAQAKK). The following applies: folded SNase Delta+PHS.
The target of data set [25] is Glu135 (UniProt position 217, AQAKKEKLNIW). The following applies: folded SNase Delta+PHS.
The target of data set [26] is Glu43 (UniProt position 125, LVDTPETKHPK). Conditions: folded SNase Delta+PHS.
Data set [27] concerns the target Glu52 (UniProt position 134, PKKFNEKYGPE). The following applies: folded SNase Delta+PHS.
Data set [28] deals with Glu57 (UniProt position 139, EKYGPEASAFT). Conditions: folded SNase Delta+PHS.
Data set [29] has as its target Glu67 (UniProt position 149, TKKMVENAKKI). Conditions: folded SNase Delta+PHS.
The target of data set [30] is Glu73 (UniProt position 155, NAKKIEVEFDK). Conditions: folded SNase Delta+PHS.
In data set [31] the target is Glu75 (UniProt position 157, KKIEVEFDKGQ). The following applies: folded SNase Delta+PHS.
In data set [32] the target is His121 (UniProt position 203, KGNNTHEQLLR).
Data set [33] addresses His8 (UniProt position 90, STKKLHKEPAT).

On to “Hen egg-white lysozyme (HEWL) (Gallus gallus)”, for which the pKa was 5.5 ± 0.2 in data set [1] and 5.68–5.74 in data set [2].

With “Acid stress chaperone HdeA (Escherichia coli)”, the pKa is given as 3.66 in data set [3]; 3.71 in data set [4]; 3.87 in data set [5]; 4.14 in data set [6]; 3.83 in data set [7]; 3.74 in data set [8]. Besides, the pKa in data set [9] is 3.75; in data set [10], 3.97; in data set [11] it was 4.38; in [12], 4.57; in data set [13], 4.07; in data set [14] it was 4.23.

Take “Staphylococcal nuclease (SNase), Delta+PHS variant (Staphylococcus aureus; G50F;V51N;P117G;H124L;S128A;del44-49)”: the pKa in [15] is on record as 2.21; in data set [16], 6.54; in data set [17], 3.87; in [18], less than 2.2; in data set [19], less than 2.2; in data set [20], 2.16. The pKa in [21] is reported as 2.82; in [22], 3.81; in data set [23] it was 3.89; in data set [24], 3.75; in data set [25] it was 3.76; in data set [26], 4.32. For the same substance, the pKa was 3.93 in [27]; 3.49 in data set [28]; 3.76 in data set [29]; 3.31 in data set [30]; 3.26 in data set [31]; 5.25 in data set [32]. The pKa in data set [33] was 6.50.

As a reminder, the pKa is the pH at which an ionisable group is half protonated.
